System: O=C(CNC(=O)OCc1ccccc1)Oc1ccc([N+](=O)[O-])cc1
Assay: purified protein
Conditions: 20 mM Tris-HCl pH 8.0, 37 °C (methods; results pH 5.0), GST fusion

MD2-SBro (small-sized bromelain from MD2 pineapple) (Ananas comosus)
Km: 42.1 ± 3.81 µM
Vmax: 0.432 µM/min
kcat: 0.2 ± 0.008 s⁻¹
kcat/Km: 4750 ± 230 M⁻¹ s⁻¹
